# From PMC3206940 (PLoS ONE, 2011)
# B1: SARS-CoV 3C-like protease (3CL^pro) (enzyme)
# chain: SGFRKMAFPSGKVEGCMVQVTCGTTTLNGLWLDDTVYCPRHVICTAEDMLNPNYEDLLIRKSNHSFLVQAGNVQLRVIGHSMQNCLLRLKVDTSNPKTPKYKFVRIQPGQTFSVLACYNGSPSGVYQCAMRPNHTIKGSFLNGSCGSVGFNIDYDCVSFCYMHHMELPTGVHAGTDLEGKFYGPFVDRQTAQAAGTDTTITLNVLAWLYAAVINGDRWFLNRFTTTLNDFNLVAMKYNYEPLTQDHVDILGPLSAQTGIAVLDMCAALKELLQNGMNGRTILGSTILEDEFTPFDVVRQCSGVTFQ
# notes: also called 3CL^pro from SARS-CoV; main protease
# B2: HCoV-OC43 3C-like protease (3CL^pro) (enzyme)
# chain: SGIVKMVNPTSKVEPCVVSVTYGNMTLNGLWLDDKVYCPRHVICSASDMTNPDYTNLLCRVTSSDFTVLFDRLSLTVMSYQMRGCMLVLTVTLQNSRTPKYTFGVVKPGETFTVLAAYNGKPQGAFHVTMRSSYTIKGSFLCGSCGSVGYVIMGDCVKFVYMHQLELSTGCHTGTDFNGDFYGPYKDAQVVQLPIQDYIQSVNFLAWLYAAILNNCNWFIQSDKCSVEDFNVWALSNGFSQVKSDLVIDALASMTGVSLETLLAAIKRLKNGFQGRQIMGSCSFEDELTPSDVYQQLAGIKLQ
# notes: also called 3CL^pro from HCoV-OC43; main protease; not shown: His6-SUMO or His6-MBP, N-terminal, cleaved
# Target: the molecule itself
# Experiment: SEC
row,Protein,stoichiometry N
1,B1,2
2,B2,2
